Test results published in US20230093708A1, “PROTEIN NANOPARTICLE DESIGN AND APPLICATION” (Duke University, priority 2020, published 2023).
Non-standard residues stand in square brackets, D forms with d. Phe(4-N3) = [N-]=[N+]=Nc1ccc(C[C@H](N)C(=O)O)cc1

Assays:
[1] = Static and dynamic light scattering (SLS/DLS) of block co-polypeptides; assay type: physicochemical
Summary of the method: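 Samples at 10 μM in PBS (140 mM NaCl, 10 mM phosphate, 3 mM KCl, pH 7.4), filtered 0.45 μm, measured at 15 °C over 30°–150° in 5° steps. Rh from cumulant fit of DLS, extrapolated to zero angle. Rg and MW from partial Zimm plots of SLS.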

[2] = Cryo-TEM micelle core size, inter-core spacing and aspect ratio; assay type: physicochemical
Summary of the method: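 Vitrified 10 μM RLPn-ELP80 (3 s blot, chamber at 15° C., 100% humidity) imaged by cryo-TEM at 80 keV. Core size and spacing measured manually on at least 25 particles; aspect ratio from the longest straight line of a particle and its perpendicular.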

[3] = Temperature-programmed dynamic light scattering; assay type: physicochemical; details: between 4 °C and 37 °C; micelles 20-37 °C; 10 μM in 140 mM PBS
Description: Temperature-programmed dynamic light scattering experiments were carried out using a Dynapro plate reader (Wyatt Technology; Santa Barbara, Calif.) with samples filtered through 0.45 μm Millex-GV filters. Data were collected at increments of 1° C., and the cumulant fit hydrodynamic radius was taken as the radius. The Tt was defined as the temperature at which aggregates of size hundreds of nanometers were formed.
Each block co-polypeptide was analyzed by dynamic light scattering (DLS) at several temperatures between 4° C. and 37° C. to determine the thermal stability of the micelles, and to determine their radius of hydration (Rh). […] In contrast, RLP40-ELP80 (SEQ ID NO: 84) and RLP40-ELP80-Fn3 (SEQ ID NO: 96) self-assembled into micelles with a Rh of 30 and 32 nm, respectively, between 20-37° C. (FIG. 15).
Therefore, to get a more accurate picture, we monitored the Rh as we slowly cooled the solution. We observed two different overall behaviors. [S]-40-[QHN]-40 (SEQ ID NO: 100) upon cooling underwent a clear unimer to micelle transition at ˜55° C. and a clear micelle to aggregate transition at 28° C. (FIG. 32B). A unimer to micelle transition that is temperature dependent is known as the critical micellization temperature (CMT). As we know from before, this UCST aggregation temperature is dependent on the solution concentration. [S]-80-[QHN]-40 (SEQ ID NO: 101) remained a micelle at the highest temperature we could measure with the instrument. Upon cooling the size of the aggregate increased slightly until a clear aggregate transition at 18° C.

K562+αvβ3 cell line = experiment: Flow cytometry cell uptake of Alexa488-labeled micelles; assay type: cell-based; details: 10 μM, 37 °C, 2 hours
Description: Approximately 1×10^8 cells were harvested from either K562 or K562+αvβ3 cell lines and resuspended into 1 mL of serum-free medium containing 10 μM of the various Fn3-decorated and control block polypeptides. LM609 antibody was also resuspended at 10 μM in serum-free medium. Micelles were prepared from a mixture of ˜10% Alexa 488 dye-labeled RLP-ELP block co-polypeptides and 90% unlabeled polypeptides on a molar basis. The cells were incubated at 37° C. with the labeled micelles for a specified time, then rinsed with 1 mL of Hanks Buffered Saline Solution (HBSS), collected by centrifugation at 500 RCF for 5 min at 20° C., and resuspended in HBSS+1% BSA. Cells were maintained on ice until they were analyzed by flow cytometry (BD Accuri C5). The cell fluorescence intensity of Alexa 488 (Green) was quantified after gating to remove cellular debris on unstained control samples.
To assess the intracellular uptake of these particles, we used a cell line stably transfected with the αvβ3 integrin. The native cell line, K562, has endogenously low levels of expression of this receptor and therefore serves as the receptor-negative control, and the un-decorated RLPXX-ELP80 micelles serve as ligand-negative controls for each type—size and shape—of micelle. […]

[4] = DLS of native and crosslinked pAzF diblock constructs in PBS and GuHCl; assay type: physicochemical; details: for hydrodynamic radius (DLS): Table 12, crosslinked UAA5-40-K8D4 ligand constructs
Source text: We wanted to thoroughly investigate the effects of pAzF-introduction as well as nanoparticle crosslinking on nanoparticle self-assembly. For this, we started by characterizing solely our five different ELP/RLP diblock architectures without any C-terminal functionalization. After expression and purification of the diblock constructs using ITC, the pAzF-containing constructs were crosslinked in solution by exposure to UV irradiation and characterized using dynamic light scattering (DLS). […] Generally, both processes seem to have increased the measured radii with this effect being more pronounced for the worm-forming constructs.
Apart from changes in nanoparticle morphology we were particularly interested in the effect pAzF-crosslinking had on their stability. […] GuHCl is a well-known denaturing agent that disrupts any inter- and intramolecular electrostatic forces and completely breaks down the quaternary, tertiary and secondary structure of most known proteins. Covalent bonds—such as the ones formed by pAzF-crosslinking—however remain unaffected by GuHCl, thus, the addition of this denaturing agent was expected to give us insights on the stability of our crosslinked nanoparticles. […] All native samples on the other hand resorted to complete unimerization upon exposure to GuHCl. As the Rh values for the crosslinked particles in GuHCl were generally larger than in PBS, the DLS data furthermore indicates a swelling behavior in the presence of the denaturing agent. This can most probably be attributed to the RLP core which is assumed to be completely collapsed in PBS but will however try to reach an elongated, random-coil morphology in the presence of GuHCl.
The first step of the characterization process was to produce crosslinked particles for the functionalized diblock constructs and to analyze whether the attachment of the ligands had caused any significant changes in particle size. […] Whatever the reason was, it had no effect on the crosslinking process as the particles still remained stable after GuHCl exposure.
Dynamic light scattering of cross-linkable protein nanoparticles was performed. […] However, these crosslinked particles remain assembled, actually growing slightly in size due to chain swelling of the core and corona in this new buffer. These novel scaffolds support various targeting domains and assemble into nearly identically sized nanoparticles between […] in hydrodynamic radius.

[5] = Table 8, 15 °C, 140 mM PBS, 10 μM

B1: RLP80-ELP80: RLP-ELP block co-polypeptide forming worm-like micelles (protein)
chain: QYPSDGRGQYPSDGRGQYPSDGRGQYPSDGRGQYPSDGRGQYPSDGRGQYPSDGRGQYPSDGRGQYPSDGRGQYPSDGRGQYPSDGRGQYPSDGRGQYPSDGRGQYPSDGRGQYPSDGRGQYPSDGRGQYPSDGRGQYPSDGRGQYPSDGRGQYPSDGRGQYPSDGRGQYPSDGRGQYPSDGRGQYPSDGRGQYPSDGRGQYPSDGRGQYPSDGRGQYPSDGRGQYPSDGRGQYPSDGRGQYPSDGRGQYPSDGRGQYPSDGRGQYPSDGRGQYPSDGRGQYPSDGRGQYPSDGRGQYPSDGRGQYPSDGRGQYPSDGRGQYPSDGRGQYPSDGRGQYPSDGRGQYPSDGRGQYPSDGRGQYPSDGRGQYPSDGRGQYPSDGRGQYPSDGRGQYPSDGRGQYPSDGRGQYPSDGRGQYPSDGRGQYPSDGRGQYPSDGRGQYPSDGRGQYPSDGRGQYPSDGRGQYPSDGRGQYPSDGRGQYPSDGRGQYPSDGRGQYPSDGRGQYPSDGRGQYPSDGRGQYPSDGRGQYPSDGRGQYPSDGRGQYPSDGRGQYPSDGRGQYPSDGRGQYPSDGRGQYPSDGRGQYPSDGRGQYPSDGRGQYPSDGRGQYPSDGRGQYPSDGRGQYPSDGRGQYPSDGRGGPGAGVPGGGVPGAGVPGGGVPGAGVPGGGVPGAGVPGGGVPGAGVPGGGVPGAGVPGGGVPGAGVPGGGVPGAGVPGGGVPGAGVPGGGVPGAGVPGGGVPGAGVPGGGVPGAGVPGGGVPGAGVPGGGVPGAGVPGGGVPGAGVPGGGVPGAGVPGGGVPGAGVPGGGVPGAGVPGGGVPGAGVPGGGVPGAGVPGGGVPGAGVPGGGVPGAGVPGGGVPGAGVPGGGVPGAGVPGGGVPGAGVPGGGVPGAGVPGGGVPGAGVPGGGVPGAGVPGGGVPGAGVPGGGVPGAGVPGGGVPGAGVPGGGVPGAGVPGGGVPGAGVPGGGVPGAGVPGGGVPGAGVPGGGVPGAGVPGGGVPGAGVPGGGVPGAGVPGGGVPGAGVPGGGVP
aggregation number (Nagg) [1]: in the thousands of chains
hydrodynamic radius (Rh) [1]: over 100 nm
radius of gyration (Rg) [1]: above 140 nm
shape factor / form factor (Rg/Rh) [1]: around 1.2
Nagg ([1]; Table 1, 10 μM in PBS, 15 °C): 2240
Rg(nm) ([1]; Table 1, 10 μM in PBS, 15 °C): 145.4 nm
Rh (nm) ([1]; Table 1, 10 μM in PBS, 15 °C): 114.3 nm
ρ ([1]; Table 1, shape factor Rg/Rh): 1.27
core radius (cryo-TEM) [2]: 19.9 nm
spacing between particle cores (cryo-TEM) [2]: 34.7 nm
Spacing (nm) ([2]; Table 2, inter-core spacing, mean ± standard deviation): 34.7 ± 4.2 nm
Core radius (nm) ([2]; Table 2, mean ± standard deviation, 10 μM in 140 mM PBS): 19.9 ± 2.8 nm
Core Diameter (nm) [n = 30] [2, 5]: 39.4 ± 5.4 nm
Intra-core Spacing (nm) [n = 30] [2, 5]: 35.0 ± 4.5 nm
Rh (DLS at several temperatures) [3]: 112 nm
cell fluorescence (Geometric Mean±StDev) (K562+αvβ3 cell line): 24904±13884

B2: RLP20-ELP80: RLP-ELP block co-polypeptide, (QYPSDGRG)20-(VPG[A:G]G)80 (protein)
chain: QYPSDGRGQYPSDGRGQYPSDGRGQYPSDGRGQYPSDGRGQYPSDGRGQYPSDGRGQYPSDGRGQYPSDGRGQYPSDGRGQYPSDGRGQYPSDGRGQYPSDGRGQYPSDGRGQYPSDGRGQYPSDGRGQYPSDGRGQYPSDGRGQYPSDGRGQYPSDGRGGAGVPGGGVPGAGVPGGGVPGAGVPGGGVPGAGVPGGGVPGAGVPGGGVPGAGVPGGGVPGAGVPGGGVPGAGVPGGGVPGAGVPGGGVPGAGVPGGGVPGAGVPGGGVPGAGVPGGGVPGAGVPGGGVPGAGVPGGGVPGAGVPGGGVPGAGVPGGGVPGAGVPGGGVPGAGVPGGGVPGAGVPGGGVPGAGVPGGGVPGAGVPGGGVPGAGVPGGGVPGAGVPGGGVPGAGVPGGGVPGAGVPGGGVPGAGVPGGGVPGAGVPGGGVPGAGVPGGGVPGAGVPGGGVPGAGVPGGGVPGAGVPGGGVPGAGVPGGGVPGAGVPGGGVPGAGVPGGGVPGAGVPGGGVPGAGVPGGGVPGAGVPGGGVPGAGVPGGGVPGAGVPGGGVPGAGVPGGGVP
hydrodynamic radius (Rh) [1]: 5.5 nm
Rh (nm) ([1]; Table 1, 10 μM in PBS, 15 °C): 5.5 nm
Rh (DLS at several temperatures) [3]: ~7 nm

B3: UAA5-40: pAzF-containing sphere-forming diblock construct (protein)
chain: QYPSDGRGQYPSDGRGQYPSDGRGQYPSDGRGQYPSDGRGQYPSDGRGQYPSDGRGQYPSDGRGQYPSDGRGQYPSDGRGQYPSDGRGQYPSDGRGQYPSDGRGQYPSDGRGQYPSDGRGQYPSDGRGQYPSDGRGQYPSDGRGQYPSDGRGQYPSDGRG[Phe(4-N3)]QYPSDGRGQYPSDGRGQYPSDGRGQYPSDGRGQYPSDGRGQYPSDGRGQYPSDGRGQYPSDGRGQYPSDGRGQYPSDGRGQYPSDGRGQYPSDGRGQYPSDGRGQYPSDGRGQYPSDGRGQYPSDGRGQYPSDGRGQYPSDGRGQYPSDGRGQYPSDGRG[Phe(4-N3)]QYPSDGRGQYPSDGRGQYPSDGRGQYPSDGRGQYPSDGRGQYPSDGRGQYPSDGRGQYPSDGRGQYPSDGRGQYPSDGRGQYPSDGRGQYPSDGRGQYPSDGRGQYPSDGRGQYPSDGRGQYPSDGRGQYPSDGRGQYPSDGRGQYPSDGRGQYPSDGRG[Phe(4-N3)]QYPSDGRGQYPSDGRGQYPSDGRGQYPSDGRGQYPSDGRGQYPSDGRGQYPSDGRGQYPSDGRGQYPSDGRGQYPSDGRGQYPSDGRGQYPSDGRGQYPSDGRGQYPSDGRGQYPSDGRGQYPSDGRGQYPSDGRGQYPSDGRGQYPSDGRGQYPSDGRG[Phe(4-N3)]
RH (nm) ([4]; 15 μm in 7.2M GuHCl, crosslinked): 52.1 ± 1.0 nm
RH (nm) ([4]; 15 μm in 7.2M GuHCl, native (not crosslinked)): 5.9 ± 1.6 nm
RH (nm) ([4]; 15 μm in PBS, crosslinked): 34.3 ± 0.3 nm
RH (nm) ([4]; 15 μm in PBS, native (not crosslinked)): 29.8 ± 0.2 nm
RH (nm) ([4]; Table 11, crosslinked UAA5-40-K8D4-ligand constructs, 0.7 μM in 7.2M GuHCl): 52.1 ± 1.0 nm
RH (nm) ([4]; Table 11, crosslinked UAA5-40-K8D4-ligand constructs, 7 μM in PBS): 34.3 ± 0.3 nm
hydrodynamic radius (DLS) ([4]; 0.7 μM in 7.2M GuHCl): 52.1 ± 1.0
hydrodynamic radius (DLS) ([4]; 7 μM in PBS): 34.3 ± 0.3
